Measured values: the DeepSol protein solubility set

Assay: soluble on expression in E. coli; label from the status in PepcDB or PDB records
With “MVEERIINLSHEIKNFVYPNDPEFIVKTKKNGKYSVSELNMGVHTGTHIDYPMHVGLTNEKFENVFGKGYCVSLENMNDFFKNAPKNLEILLIKTDFSKYWEDPEYFEKECDIENHVEKLISMNLKAVGIDCCSIGNFSVHEKLLSSKIKIIENMKNLEILENKTFKFFGFPLNIEKIDGSPINAVAFLLEHHHHHH” the “soluble on expression in E. coli” value was “not soluble”. In the case of “EVQLLESGGGLVQPGGSLRLSCAASGFTFSRYVMWWVRQAPGKGLEWVSYIWPSGGNTYYADSVKGRFTISRDNSKNTLYLQMNSLRAEDTAVYYCASSYDFWSNAFDIWGQGTMVTVSSASTKGPSVFPLAPCSRSTSESTAALGCLVKDYFPEPVTVSWNSGALTSGVHTFPAVLQSSGLYSLSSVVTVPSSSLGTKTYTCNVDHKPSNTKVDKRVES”, the “soluble on expression in E. coli” value is reported as “soluble”. In the case of “MLEVSVMTIRRDLHQEDEPLPLTLLGGYIVMVNKPAPSMPVIHDVPKNHRDDLPIAILAAGMVNENDLIFFDNGQEIPLVISMIPDAITFTGICYSHRVFVALNEKPNVTAILCGGTYRARSDAFYDASNSSPLDSLNPRKIFISASGVHNHFGVSWFNPEDLATKRKVMNRGLRKILLARHALFDEVASASLAPISAFDVLISDRPLPADYVTHCQNGSVKIITPDSEDELEHHHHHH”, the “soluble on expression in E. coli” value is reported as “not soluble”. In the case of “MGSDKIHHHHHHANAAKKDDAKFKPAADRDGPRWRTGIEGQRIADLGDGRFLNPVLSGDYPDPSVLKDGDDYYMTHSSFDSAPGLLIWHSRDLVNWRPLGPALAKPLGTVFAVDIAKHDGRYFIYIPFMKAPWSTDLPSFANTFVIHAPSMEGPWSDPIDLKVGGLIDPGHVVGEDGHRYLFFNDGKRVRLTADGLATDGPVETAYQAWRYPDDWITEAYSPEGPKLFRRGDYFYLVNAVGGTSGPATGHMIVAARSRSIHGPWENCPHNPIQRTHSRQEMWWSRGHATCVEGPGGQWYMVYHGYENGYHTLGRQTLVEPIEWTPDGWFRATGGDLSEPLRKPRGPAQPHGMAHSDSFHTDRLGTLWNLYGSAPAETARIAIGDGALTLKAKGKGPSDGVVLTQQVGDRSYEVSVELELTDKTSGGLLLFFDDRLFLGMGIDGHRMTTWRGGKASYWPEPAPPARRIFMRITNQEQVVTFYYSLDGKNWTRHGVRSEVTGYNANTVDNLLSLRPALYAAGEGEVLFRNFTYRALA”, the “soluble on expression in E. coli” value is reported as “not soluble”. For “MGSDKIHHHHHHMVKELDLQSVQGTMLIPLWGRAYGSEKNKNILDDTEAIRIIKEFDFDFSTIENTFGEYGCITYITRARKIDDTIKQFITKHPNATIVNIGSGLDTTFSRIDNGTIHWYNLDLPDAISFRKTLIEDTSRNTSIAKSFFDTSWFDDIKYDPNDGILFISAGVFYYFKEEDLKKIVVAMSKRFPGGELYFDAESKFALNLSNATVKKSGNNGALMYFYINNPKTLEKWSPNIKVLSCSPFFKNIPTNKGWDGSTRIMIRIVNLIKMLKFVHLRFEK”, the “soluble on expression in E. coli” value was “not soluble”. For “NKSIRMTPSQVAFEIRGTLLPGEVFAICGSCDALGNWNPQNAVALLPENDTGESMLWKATIVLSRGVSVQYRYFKGYFLEPKTIGGPCQVIVHKWETHLQPRSITPLESEIIIDDGQFGIHNGVETLDSGWLTCQTEIRLRLHYSEKPPVSITKKKLKKSRFRVKLTLEGLEEDDDDRVSPTVLHKMSNSLEISLISDNEFKCRHSQPECGYGLQPDRWTEYSIQTMEPDNLELIFDFFEEDLSEHVVQGDALPGHVGTACLLSSTIAESGKSAGILTLPIMSRNSRKTIGKVRVDYIIIKPLPGYSCDMKSSFSKYWKPRIPLDVGHRGAGNSTTTAQLAKVQENTIASLRNAASHGAAFVEFDVHLSKDFVPVVYHDLTCCLTMKKKFDADPVELFEIPVKELTFDQLQLLKLTHVTALKSKDRKESVVQEENSFSENQPFPSLKMVLESLPEDVGFNIEIKWICQQRDGMWDGNLSTYFDMNLFLDIILKTVLENSGKRRIVFSSFDADICTMVRQKQNKYPILFLTQGKSEIYPELMDLRSRTTPIAMSFAQFENLLGINVHTEDLLRNPSYIQEAKAKGLVIFCWGDDTNDPENRRKLKELGVNGLIYDRIYDWMPEQPNIFQVEQLERLKQELPELKSCLCPTVSRFVPSSLCGESDIHVDANGIDNVENA”, the “soluble on expression in E. coli” value was “soluble”. For “MSLKLFCFKAIIFPIVGGSFNNGTNVFQSTVIVISLDGFRADYLYRGFTPNLLSLAERNVHVPFLIPSFPSITFPNHYTIVTGLYPESHGIVSNNFFDPVTGKQFVNSMPECNKDPTWWDKGEPIWVNAERNNVRSAVHMWPGNEVENHGYRPTYSDGFNFDTTLREKKDRILEWLDLPDKDRPQLLLAYAPHVDMVGHAFGPDSPELNIIIQEVDIVIGELIEGLKKRNIDKHVNIIFLSDHGMAPTSDNRLIWLDNMFNLSAVAHRDAWPLGGFRGESDLDDEYIYESLVNYSRSSLPSAENWNVYSKKDIPSRWHYSNNERIAPVWMIPDVGWSLVSMLDHSPELEYEPLGVHGYDNLSPVMRALFIASGSSFKNFKGKKLAPFQNTEIYGILSHILDLPAQPNNGTYEGALPLRRNRNSTKEWLLKDIEQAYSKLIEGHHHHHH”, the “soluble on expression in E. coli” value was “not soluble”. For “MGSDKIHHHHHHVAKAELMQLPASQMVIGLTVKLPLGWTQHPFFINRIKLTSQAQIELIRGLELTFVYVLSGHELLPEVIEEVEDKQADPMQVKAKPKKVLDSKAAVIKAMRVGQQRFLSNINESRSVFAQFAIEPDKAYREAATMVEGFVDHLQETDTPYLALVGSGEMDVSVTQHGISVAVLSLMIGHALELPKSDLRDLALGSLFHDFGKLKIPDNIRRKRSELTEPEQNYLKMHPNLGFDLLNACNLYPKSVLNIVLHHHEYIDGSGYPDHLTEKDIPLLTQIVSLANDYEGLLEQFTFSPQLALGTLFKSHAKKHAQNLIAALVKVLGIYPPGTLVSLSDGSIGKVMMTTREVKQPHVWSCNLGGGEANLRFLLEEDVTVSSVLRLEELTEGALKTLQADSPISFYFSALPDN”, the “soluble on expression in E. coli” value was “not soluble”. For “MPMDSYEKRGYLDREFRLFHLSACLPGDISYHYHDFDKILIFLRGDVDYVIEGRSYHLNPYDIVLVGHHSIHKPLLRSGDVYERIVVYLSPGYVDSFRTENCDLSRCFKDAREHCSDVLRISSLKISSLYESLIRLEKACREDGYAKELYCRILFLEFMIHLNRAASGSHLEYVSTSPSSEKVLEIMRYISENPSADFTIDSLASRFFLSKFHMMRLFKQETGYTINSYINEKRLLMAKELLGRNLPVTEVCFRCGFRNYAAFLRAYKKNFGENPKSGKRPEGRTSVDNLHAPRTEHRLQKKPLSK”, the “soluble on expression in E. coli” value was “not soluble”. In the case of “MNMALISLAIDYKKSPIEVRSEFALSGLDVSMLYRSILAIDNVVHAVILSTCNRTEVYLEISDLRVVDDILVWWQGYVRNPNYKIKDYFKLRQGTEVIMHLMKLACGLESMVLGEPQILGQVKDSYTLSKKNHAIGKELDRVFQKVFATAKRVRSETRIGHCPVSVAFSAITLAKRQLDNISSKNVLIIGAGQTGELLFRHVTALAPKQIMLANRTIEKAQKITSAFRNASAHYLSELPQLIKKADIIIAAVNVLEYIVTCKYVGDKPRVFIDISIPQALDPKLGELEQNVYYCVDDINAVIEDNKDKRKYESSKAQKIIVKSLEEYLEKEKAIISNSAIKELFQKADGLVDLSLEKSLAKIRNGKDAEEIIKRFAYEIKKKVLHYPVVGMKEASKQGRSDCLVCMKRMFGLNVEK”, the “soluble on expression in E. coli” value is reported as “not soluble”. In the case of “MYQVIRMYGAMEPWWFLDDWKEDITKVLEFDNYHEALQCYQKEWAKLRRRYSDFNSHGDIMTAFWNKQDQHWCEECGDYVQRYHSLALLTDWQETPSSWFRPTFTKQNDTPFRSKCFIKQKNEQGQNLEHHHHHH”, the “soluble on expression in E. coli” value is reported as “not soluble”. In the case of “MGSDKIHHHHHHMDAKTIDNRIRRAFNGIRQAFRGKIARVKAAGGVQQIQVEGLEGETVQDLEHAENFGFTSNPPAGSDCVVVPLGGKTSHGIIVTTTNGAYRITGLAEGETAVYNADGAKMVLKKGRIIEIDCETLNIKAPGGVNIDAPNVGCTAQITAEGQINGNGGMAVKGGSGTSFTGNVQMVGDLDTTGKLTNNGKNVGSDHKHNGDSGGTTSDPL”, the “soluble on expression in E. coli” value is reported as “not soluble”. For “MTDLNRTALPSRTDGTVEKTDTLVVGAGQAGVAMSEHLSRLGVPHLVLERNRIAEAWRSGRWDSLVANGPAWHDRFPGMEFDIDPDGFPGKDQVAAYFEAYAKRFDAPIRTGVEVRKVVRNVGRPGFTVDTSAGTIEANRVVAATGPFQRPVIPPIAPRDERIRQIHSAHYYNPQQLPEGAVLVVGAGSSGVQIADELQRAGRQVYLSVGAHDRPPRSYRNRDFCWWLGVLGEWDAEVAKPGREHVTIAVSGARGGHTVDFRALAHQGVTLVGLTESFVDGVATFRPDLAENLARGDENYLALLDAADAYIARNGLDLPEEPEARRRLPDPQCVTDPILELDLAEAGVGSIIWATGYAVDFGWLQVDAFDRDGKPRHQRGVSSEPGVYFIGLPWLSRRGSSFIWGVWHDARHVADHIAIQRKYLAYRDAAQRQEQDRASQAPQTSLQEVS”, the “soluble on expression in E. coli” value was “not soluble”. With “MFERYQAGEQAVLVHLDFPDESSREDLSEFKMLVSSAGVQALTVVTGKRNTPHPRFFVGSGKAEEIRDAVHLVGANVVLFNHSLTPSQEKNIEALCECRVVDRTTLILDIFAQRARTHEGKLQVELAQLRHMSSRLIRGWTHLERQKGGIGLRGPGETQLETDRRLLRERMVNIRKRLGKVEVQRQQGRRARTRAELPTLSLVGYTNAGKSTLFNTLTQSDVYAADQLFATLDPTLRKIDLFGVGRVILADTVGFIRHLPHDLVAAFKATLTETREAELLLHVVDISDDRRSENIEQVEYVLKEIEANDVPQLIICNKIDNLDDIEPRIDRDDQGMPIRVWLSAQANIGTELLFTALAERLDIQVVNHQLSIPPSAGKLRGELYKLNCVTSETYDEQGHCHLEVNMPSREWERLISTKYSELVDYIEHLEHHHHHH” the “soluble on expression in E. coli” value was “not soluble”. In the case of “MSYVTTKDGVQIFYKDWGPRDAPVIHFHHGWPLSADDWDAQLLFFLAHGYRVVAHDRRGHGRSSQVWDGHDMDHYADDVAAVVAHLGIQGAVHVGHSTGGGEVVRYMARHPEDKVAKAVLIAAVPPLMVQTPGNPGGLPKSVFDGFQAQVASNRAQFYRDVPAGPFYGYNRPGVEASEGIIGNWWRQGMIGSAKAHYDGIVAFSQTDFTEDLKGIQQPVLVMHGDDDQIVPYENSGVLSAKLLPNGALKTYKGYPHGMPTTHADVINADLLAFIRS”, the “soluble on expression in E. coli” value is reported as “soluble”. For “MGSDKIHHHHHHMDRQKTSQTVPAGDADDGDDTSVDEKRSPLILTEQVWRKRPAYSSPLPDDKSITLSRWTIPEQPTPVEFRSDGNEDSHIITYSLRQSSVDFWMEGQRVSNGRVTPHAVLMTGPGQPGRAVFYKVFDSIRMYLPQALLAECHEGAYGRPPNQDIVLSHPHFVADQKVRHLVEALVLVDQTDGAMGRIYVDSIGLAIGARLIALHGERRNPVDRSQGLSAWRLRHVIEYIDAHLSSPIGLAELANVAGLSRMHFARRFREVTGQTPHQYVLRCRIMRAQQLLCSPALSVTDIASALAFKTTAHFSTVFRHIVGESPTQWRKRLR”, the “soluble on expression in E. coli” value was “not soluble”. For “MQKVLAIVGPTAIGKTDLAISLAQKLNGEIISGDSMQVYQEVEVGTAKATKEEQAKVKHYLVDNRSVFDEYSVKDFVDEAKKAISEVAKKGKLPILVGGTGFYVNALLNEMQLGERNDEERGTSQKWEDYLKENGAEKLWQILNEKDPTAAAKIPVPNSRRTMRALTVIDRTGKKFSEQQKKIKPRYDYLIIGLNSDRQEIYRRINLRVDKMMGKGMLEEAKFIYDNRDKEHQILQAIAYKEFFPYFDGEKSLEDCVTQLKTASRRYAKRQLTYFRNQLPIQWFDPLNDLECEQKIINKVREWENGLEHHHHHH”, the “soluble on expression in E. coli” value was “soluble”. With “MGSDKIHHHHHHMPINIRRATINDIICMQNANLHNLPENYMMKYYMYHILSWPEASFVATTTTLDCEDSDEQDENDKLELTLDGTNDGRTIKLDPTYLAPGEKLVGYVLVKMNDDPDQQNEPPNGHITSLSVMRTYRRMGIAENLMRQALFALREVHQAEYVSLHVRQSNRAALHLYRDTLAFEVLSIEKSYYQDGEDAYAMKKVLKLEELQISNFTHRRLKENEEKLEDDLESDLLEDIIKQGVNDIIV” the “soluble on expression in E. coli” value was “not soluble”.
